# Laboratory results from the Human Domainome abundance scans (Beltran et al. 2025).
# ± gives the uncertainty stated by the source.
# B1: Zinc finger homeobox protein 3, residues 2147 to 2202; numbered along this chain, Q15911 (parent)
# chain: RPRTRITDDQLRVLRQYFDINNSPSEEQIKEMADKSGLPQKVIKHWFRNTLFKERQ
# Variants of: B1
# Assay: abundance fitness (aPCA) (normalised: wild type 0, dead -1); higher = more abundant; growth selection in yeast, the domain comes from the species named
# Details: Homo sapiens
row,Variant,abundance fitness
1,RPRTRITDDQLRVLRQYFDINNSPSEEQIKEMADKSGLPQKVIDHWFRNTLFKERQ [K44D],-0.08 ± 0.16
2,RPRTRITDDQLRVLRQYFDINNSPSEEQIKEMADKSGLPQKVIYHWFRNTLFKERQ [K44Y],-0.354 ± 0.18
3,RPRTRITDDQLRVLRQYFDINNSPSEEQIKEMADKSGLPQKVILHWFRNTLFKERQ [K44L],-0.03 ± 0.088
4,RPRTRITDDQLRVLRQYFDINNSPSEEQIKEMADKSGLPQKVIFHWFRNTLFKERQ [K44F],-0.175 ± 0.16
5,RPRTRITDDQLRVLRQYFDINNSPSEEQIKEMADKSGLPQKVIIHWFRNTLFKERQ [K44I],-0.102 ± 0.15
6,RPRTRITDDQLRVLRQYFDINNSPSEEQIKEMADKSGLPQKVIHHWFRNTLFKERQ [K44H],-0.131 ± 0.2
7,RPRTRITDDQLRVLRQYFDINNSPSEEQIKEMADKSGLPQKVISHWFRNTLFKERQ [K44S],-0.214 ± 0.12
8,RPRTRITDDQLRVLRQYFDINNSPSEEQIKEMADKSGLPQKVIVHWFRNTLFKERQ [K44V],-0.107 ± 0.084
9,RPRTRITDDQLRVLRQYFDINNSPSEEQIKEMADKSGLPQKVIWHWFRNTLFKERQ [K44W],-0.176 ± 0.1
10,RPRTRITDDQLRVLRQYFDINNSPSEEQIKEMADKSGLPQKVIAHWFRNTLFKERQ [K44A],-0.096 ± 0.097
11,RPRTRITDDQLRVLRQYFDINNSPSEEQIKEMADKSGLPQKVITHWFRNTLFKERQ [K44T],-0.246 ± 0.11
12,RPRTRITDDQLRVLRQYFDINNSPSEEQIKEMADKSGLPQKVIGHWFRNTLFKERQ [K44G],-0.11 ± 0.082
13,RPRTRITDDQLRVLRQYFDINNSPSEEQIKEMADKSGLPQKVIEHWFRNTLFKERQ [K44E],-0.146 ± 0.12
14,RPRTRITDDQLRVLRQYFDINNSPSEEQIKEMADKSGLPQKVIKFWFRNTLFKERQ [H45F],0.009 ± 0.14
15,RPRTRITDDQLRVLRQYFDINNSPSEEQIKEMADKSGLPQKVIKYWFRNTLFKERQ [H45Y],-0.036 ± 0.12
16,RPRTRITDDQLRVLRQYFDINNSPSEEQIKEMADKSGLPQKVIKLWFRNTLFKERQ [H45L],-0.032 ± 0.079
17,RPRTRITDDQLRVLRQYFDINNSPSEEQIKEMADKSGLPQKVIKKWFRNTLFKERQ [H45K],0.141 ± 0.11
18,RPRTRITDDQLRVLRQYFDINNSPSEEQIKEMADKSGLPQKVIKMWFRNTLFKERQ [H45M],0.029 ± 0.1
19,RPRTRITDDQLRVLRQYFDINNSPSEEQIKEMADKSGLPQKVIKRWFRNTLFKERQ [H45R],-0.052 ± 0.091
20,RPRTRITDDQLRVLRQYFDINNSPSEEQIKEMADKSGLPQKVIKVWFRNTLFKERQ [H45V],0.015 ± 0.078
21,RPRTRITDDQLRVLRQYFDINNSPSEEQIKEMADKSGLPQKVIKDWFRNTLFKERQ [H45D],0.109 ± 0.12
22,RPRTRITDDQLRVLRQYFDINNSPSEEQIKEMADKSGLPQKVIKEWFRNTLFKERQ [H45E],0.106 ± 0.099
23,RPRTRITDDQLRVLRQYFDINNSPSEEQIKEMADKSGLPQKVIKQWFRNTLFKERQ [H45Q],0.085 ± 0.1
24,RPRTRITDDQLRVLRQYFDINNSPSEEQIKEMADKSGLPQKVIKCWFRNTLFKERQ [H45C],-0.194 ± 0.12

row,Variant,abundance fitness
1,RPRTRITDDQLRVLRQYFDINNSPSEEQIKEMADKSGLPQKVIKAWFRNTLFKERQ [H45A],0.039 ± 0.077
2,RPRTRITDDQLRVLRQYFDINNSPSEEQIKEMADKSGLPQKVIKPWFRNTLFKERQ [H45P],-0.377 ± 0.11
3,RPRTRITDDQLRVLRQYFDINNSPSEEQIKEMADKSGLPQKVIKIWFRNTLFKERQ [H45I],-0.09 ± 0.13
4,RPRTRITDDQLRVLRQYFDINNSPSEEQIKEMADKSGLPQKVIKSWFRNTLFKERQ [H45S],0.028 ± 0.086
5,RPRTRITDDQLRVLRQYFDINNSPSEEQIKEMADKSGLPQKVIKWWFRNTLFKERQ [H45W],0.028 ± 0.099
6,RPRTRITDDQLRVLRQYFDINNSPSEEQIKEMADKSGLPQKVIKGWFRNTLFKERQ [H45G],0.007 ± 0.085
7,RPRTRITDDQLRVLRQYFDINNSPSEEQIKEMADKSGLPQKVNKHWFRNTLFKERQ [I43N],-0.959 ± 0.22
8,RPRTRITDDQLRVLRQYFDINNSPSEEQIKEMADKSGLPQKVFKHWFRNTLFKERQ [I43F],-0.864 ± 0.39
9,RPRTRITDDQLRVLRQYFDINNSPSEEQIKEMADKSGLPQKVPKHWFRNTLFKERQ [I43P],-1.05 ± 0.21
10,RPRTRITDDQLRVLRQYFDINNSPSEEQIKEMADKSGLPQKVDKHWFRNTLFKERQ [I43D],-1.12 ± 0.23
11,RPRTRITDDQLRVLRQYFDINNSPSEEQIKEMADKSGLPQKVAKHWFRNTLFKERQ [I43A],-0.534 ± 0.089
12,RPRTRITDDQLRVLRQYFDINNSPSEEQIKEMADKSGLPQKVYKHWFRNTLFKERQ [I43Y],-1.08 ± 0.34
13,RPRTRITDDQLRVLRQYFDINNSPSEEQIKEMADKSGLPQKVMKHWFRNTLFKERQ [I43M],-0.706 ± 0.16
14,RPRTRITDDQLRVLRQYFDINNSPSEEQIKEMADKSGLPQKVRKHWFRNTLFKERQ [I43R],-1.21 ± 0.12
15,RPRTRITDDQLRVLRQYFDINNSPSEEQIKEMADKSGLPQKVGKHWFRNTLFKERQ [I43G],-1 ± 0.088
16,RPRTRITDDQLRVLRQYFDINNSPSEEQIKEMADKSGLPQKVCKHWFRNTLFKERQ [I43C],-0.349 ± 0.2
17,RPRTRITDDQLRVLRQYFDINNSPSEEQIKEMADKSGLPQKVTKHWFRNTLFKERQ [I43T],-0.54 ± 0.13
18,RPRTRITDDQLRVLRQYFDINNSPSEEQIKEMADKSGLPQKVEKHWFRNTLFKERQ [I43E],-0.767 ± 0.12
19,RPRTRITDDQLRVLRQYFDINNSPSEEQIKEMADKSGLPQKVQKHWFRNTLFKERQ [I43Q],-1 ± 0.17
20,RPRTRITDDQLRVLRQYFDINNSPSEEQIKEMADKSGLPQKVSKHWFRNTLFKERQ [I43S],-0.987 ± 0.14
21,RPRTRITDDQLRVLRQYFDINNSPSEEQIKEMADKSGLPQKVLKHWFRNTLFKERQ [I43L],-0.443 ± 0.097
22,RPRTRITDDQLRVLRQYFDINNSPSEEQIKEMADKSGLPQKVKKHWFRNTLFKERQ [I43K],-0.945 ± 0.21
23,RPRTRITDDQLRVLRQYFDINNSPSEEQIKEMADKSGLPQKVVKHWFRNTLFKERQ [I43V],-0.015 ± 0.09
